Reference: the nanobody polyreactivity screen of Harvey et al. (2022)

Experiment: yeast display, Sf9 membrane polyspecificity reagent, FACS + sequencing; frameworks hold sequencing errors
In short: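 Genes from sorted yeast were amplified by colony PCR, read by MiSeq 2 × 250 sequencing and filtered on CDR length. These cells carried a synthetic nanobody library in Saccharomyces cerevisiae BJ5465 and were sorted by FACS into low and high (top ~1%) gates on anti-HA and streptavidin fluorescence. Polyreactivity is labelled according to the gate of origin.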

QVQLVESRGGLVQAGGSLRLSCAASGSTFSPYVMGWYREAPGKERELFAAIRGRGGNTYYADSVKGRFTISRDNAKNTVYLQMNSLKPEDSAVYYCAAQSFAQYGWRYGDWGQVTQVTVSS
polyreactivity (PSR sort gate): high polyreactivity

QVQLVESGRGLVQAGGSLRISCAASGSIFRVNAMGWYRQAPGKERELVASISKTGTRTYYADSVKGRFTISRDNAKITVYLQMNSLKPEDTAVYYCAADKPRREYDYWGQGTQVTVSS
polyreactivity (PSR sort gate): low polyreactivity

QVQLVESGGGLVQAGGSLRLSCAASGFILPIYAMGWYRQAPGKEREFVAAITWTGGSTYYADSVKGRFTISRDTAKNNVFLQIHSLKPEDTAVYYCAKRYYLRGYGRYYYWGQGTQVTVSS
polyreactivity (PSR sort gate): high polyreactivity

QVQLVESVGGLVQAGGSLRLSCAATGRIFHYNAMGWYRQAPGKERELVAAITSSGGTTYYADSVKGRFTISRDIAKNTVYLQMNTLKPEDTAVYYCNAVTSARVNYRGQGTQVTVSS
polyreactivity (PSR sort gate): high polyreactivity

QVQLVESGGGLVQAGGSLRLSCAASGRTFYVNTMGWYRQAPGKERELVASITWSDGSTYYADSVKGRFTISRDNAKNTVYLQMNSLKPDDSAVYYCAASGRFIVNAYRSWGRRRYEYWGQGTQVTVSS
polyreactivity (PSR sort gate): high polyreactivity

QVQLVESGGGLVQAGGRLRLSCAASGRTIPYYAMGWSRQSPGKDREFVAAISGGGGSTHYADSVKGRFTISRDNAKNTVYLQMNSLKPEDTAVYYCNADKYSVYGEHPYDYWGQGSQVTVSS
polyreactivity (PSR sort gate): low polyreactivity

QVQLVESGGGLVQAGGSLRLSCAASGRTFFDYTMGWYRPAPGKERELVAAITGGDGSTYYADSVKGRFTISRDNAKNTVYLQMNSLKPEDTAVYYCAASVWYNPMDYWGQVTQVTVSS
polyreactivity (PSR sort gate): low polyreactivity

QVQLVESGGGLVQAGGSLRLSCAASGITFHPYAKGWYRQAPGNEREFVAVISFRGGRTYYADSVKGRFTISRDNAKNNVYLQMNSLKPEDTAVYYCAAQYVSRRYSRYNYWGQGTQVTVSS
polyreactivity (PSR sort gate): high polyreactivity

QVQVVESGGGLVQAGGSLRLSCAPSGRIFTIYVMGWYRQAPGKERELVATITYSSGSTTYADSVKGRFTISRDNAKNTVYLQMNSLKPEDTAVYYCAKKYYTGYGYWGQGTQVTVSS
polyreactivity (PSR sort gate): low polyreactivity

QVQLVESGGGLVQAGGSLRLSCAASGGTFRLNAMGWYRQAPGKERELVATITRRGGSTYYADSVKGRFTISRDNAKNTVYLQMNSLKPEDTAVYYCAARDVYRGGLFDYWGQGTQVTVSS
polyreactivity (PSR sort gate): high polyreactivity

QVQLVESGGGVVQAGGSLRVSCAASGRIFAPYAMGWYRQAPGKERELVAAISWRGSSTYYADSVKGRFTISRDNAKNTVSLQMNSLKPEDTAVYYCAAPSSKYWGQGTQVTVSS
polyreactivity (PSR sort gate): low polyreactivity

QVQLVESGGGLVQAGGSLRLSCAASGSTFGKYAMGWYRQATGKERELVAAITNGGRTNYADSVKGRFTISRDNAMNTVYLQMNSMKPEDTAVYYCNKARYGTDDYDYWGQGTQVTVSS
polyreactivity (PSR sort gate): low polyreactivity

QVQLVESGGGLVQAGGSLRLSCAASGSIFYPNAMGWYRQAPGKEREFVAAITWNGDSTYYADSVKGRFTISRDNAKNTVYLQMNSLKPEDTAVYYCNTDGQGIYSYNKDLSWISGYDYWGQGTQVTVSS
polyreactivity (PSR sort gate): low polyreactivity

QVQLVESGGGLVQAGGSLRLSCAASGFTITTYAMGWYRQAPGKERELVAVISVSGGRTYYADSVKGRFTISRDNAKNTVYLQMNSLKPEDTAVYYCAAEYYPGWEYGYWGQGTQVTVSS
polyreactivity (PSR sort gate): high polyreactivity

QVQLVESGGGLVQAGGSLRLSCAASGRIFGYNAMGRYRQAPGKERELVAAISSGASTIYADSVKGRFTISRDNAKNTVYLQMNSLKPEDTAVYYCAKEKVISPYPYSYYKSDYWGQGTQVTVSS
polyreactivity (PSR sort gate): high polyreactivity

QVQLVESGGGLVQAGGSLRLSCAASGSILFGNAMGWYRQAPGKERELVAAITVSGGSTYYADSVKGRFTISRDNAKNTVYLQMNSLKPEDTAVYYCAAGGWWHYRPQSYSGPFDYWGQGTQVTVSS
polyreactivity (PSR sort gate): low polyreactivity

QFQLVESGGGLVQAGGSLRLSCAASGGTFGWNAMGLYRQAPGKERELVAAITSSGGDTYYADSVKGRFTISRDNAKNTVYLQMNSLKPEDTAVYYCAAEDGRQYGYWGQGTQVTVSS
polyreactivity (PSR sort gate): low polyreactivity

QVQLVESGGGLVQAGGSLRLSCAASGRIFSRYAMGWYRQAPGKERELVAAIRWSGGRTYYADSVKGRFTISRDNAKNTVYLQMNSLKPEDTAVYYCAKYRYTVAGYNYWGQGTQVTVSS
polyreactivity (PSR sort gate): high polyreactivity

QVQLVESGGGLVQAGGSLRLSSAASGSTFTSYAMGWYRQAPGNEWELVAAINSGGGTNYADSVKGRFTISRDNAKNTVYLQMNSLKPEDTAVYYCAKSRYDYTKTEGGYWGQGTQGTVSS
polyreactivity (PSR sort gate): low polyreactivity

QVQLVESGGGLVQAGGSLRLSCAASGLIFRYNTMGWYRQAPGKERELVAAITSSGVRTYYADSVKGRFTISRDNAKNTVYLQMNSLKPEDTAVYYCAAEGKSYPWPWYFDYWGQGTQVTVSS
polyreactivity (PSR sort gate): high polyreactivity

QVQLVESGGGLVQAGGSLRLTCAASGYIFNQYTMGWYRQAPGKERELDADISSGGSTKYADSVKVRFTISRDNAKNTVYLQMISRKAEDTAFYYCNAEYVYGYPTAYDWEYDYWGQGTQVTLSS
polyreactivity (PSR sort gate): high polyreactivity

QVQLVESGGGLVQAGGSLRLSCAASGIIFYTYAMGWYRQAPGKEREFVAGIRWSGSSTYYADSVKGRFTISRDNAKNTVYLQMNCLNPEDTAVYYCATGQPYGPLFSMGYGYWGQVTQVTVSS
polyreactivity (PSR sort gate): high polyreactivity

QVQLVESGGGLVQAGGSLRLSCAASGRTFVTNAMGWYRPAPGKERELVPAISSNGGSTYYADSVKGRFTISRDTAKNTVYLQMNSLKPEDTAVYYCNAEGQPLYWWDHGNYWGQGTQVTVSS
polyreactivity (PSR sort gate): low polyreactivity

QVQLVESGGGLVQAGGSLRLSCAASGGTIIGYAMGWYRQAPGKERELVAAITSGGSTYYADSVKGRFTISRDNAKNTVYLQMNSLKPEDTAVYYCAKSYGGLGSIYRFYYWGQGTQVTVSS
polyreactivity (PSR sort gate): low polyreactivity

QVQLVESGGGLVQPGGSLRLSCAASGIIFSFYTIGWDRQEPGKEMELVAAISSSGGRTFYADSVKGRFTISRDNAKNTVYLQMNSLKPEDTAVYYCYAAHTREYYWGQGTQVTLSS
polyreactivity (PSR sort gate): high polyreactivity

QVQLVESGGGLVQAGGSLRLSCAASGRIFTFYAMGWYRQAPGKERELVAAITSGGSTYYADSVKGRFTISRDNAKNTVYLQMNSLKPEDTAVYYCNALHHTQHDYWGQGTQVTVSS
polyreactivity (PSR sort gate): low polyreactivity

QVQLVESGGGLVQAGGSLRLSCAASGLTSNGYDMGWYRQAPGKERELVAGITSGGSPYYADSVKGRFTISRDNAKNTVYLQMNSLKPEDTAVYYCNADVTYYIVWEYDYWGQGTQVTVSS
polyreactivity (PSR sort gate): low polyreactivity

PVQLVESGGGLVQAGGSLRLICAASGRIFEINAMGWYRQAPGKERELFAAITRGGRTYYADSVKGRFTSSRDNAMNTVYLQMTSLKPEDTAVYYCAAYGHIRSGFDCVDYWGQGTQVTVSS
polyreactivity (PSR sort gate): high polyreactivity

QVQLVESGGGLVQAGGSLRLSCAASGRIYGKYAMGWSRQAPGKERELVASISYSGGSTYYADSVKGRFTISRDNAKNTVYLHMISLKPEDTAVYYCAARKWRYGRYVYWGQGTQVTVSS
polyreactivity (PSR sort gate): high polyreactivity

QVQLVESGGGLVQAGGSLRLSCAASGRIFKWNAMGWYRQAPGKERELVAAISLSGGSTYYADSVKGRFTISRDKAKNTVYLQMNSLKPEDTAVYYCNAYAYHRYGYWGQGTQVTVSS
polyreactivity (PSR sort gate): high polyreactivity

QVQLEESGGGLVQAGGSLRLSCAASGYTFESYPMGWYRQAPGKEREFVAVISSSDTSTSYADSVKGRFTISRDNAKNTVYLQMNSLNPEDTAVYYCAAYSSPYYITYYWYNYDYWGQGTQVTVSS
polyreactivity (PSR sort gate): low polyreactivity

QVQLVESGGGLVQAGGSLRLSCADSGSIYHNYDMGWYRQAPGKEKEFVADISRGGDTIYADSVKGRFSISRDNAKNTVYLQMNSLKPEDTAVYYCNATYWILDSPWWRETFDYWGQGTQVTVSS
polyreactivity (PSR sort gate): low polyreactivity

QVQLVESGGGLVQAGGSLRLSCAASGFTLWLYAMGWYRQAPGKERELVASISWAGGSTYYADSVKGRFTISRDNAKNTVYLQMNSLKPEDTAVYYCAASRARTRSAYNYSGQGTQVTVSS
polyreactivity (PSR sort gate): high polyreactivity

QVQLVESGGGLVQAGGSLRLSCAASGNTCTPNGMGWYRQAPGKEREFVAAITWSGGRTHYADSVKGRFTISRDNAKNTVYLQMNSLKPEDTAVYYCAARRSHFEYGTYSGYDYYWGQGTQVTVSS
polyreactivity (PSR sort gate): high polyreactivity

QDQLVESGGGLVQAGGSLRLSCAASGRTFWVYAKGWYRQAPGKERELVAGISWDDGSTYYADSVKGRFTISRDNAKNTVYLQMNSLKPEDTAVYYCAADAYFIFYISYEYWGQGTQVTVSS
polyreactivity (PSR sort gate): low polyreactivity

QVQLVESGGGLVQAGGSLRLSCAASGSTFVTYGMGWYRQAPGKERELVAAITRDSSTNDADSVKGRFTISRDNAKNTVYLQLNSLKPEDTAVYYCATPRLPNFIGTEYDYWGQGTQVTVSS
polyreactivity (PSR sort gate): low polyreactivity

QVQLVESGGGLVQAGGSLRLSCAASGSTFYFYTMVWYRQAPGKEREFVAAISRRGGSTYYADSVKGRFTISRDNAKNTVYLQMNSLKPEDTAVYYCAAYTSTSDNGDSWGQGTQVTVSS
polyreactivity (PSR sort gate): high polyreactivity

QVQLVESGGGLVQAGGSLRLSCAASGSIFETYAMGWYRQAPGKEWELVAAISRTSGRTYYADSVKGRFTISRDNAKNTVYLQMNSLKPDDTAVYYCAAVVRNPGTYDYWGHGTQVTVSS
polyreactivity (PSR sort gate): high polyreactivity

QVQLQESGDGLVQAVGSLRLSCAASGYISGYNYMGWYRQAPGKERELVAGIDAFGSSTNYADCVKGRFTISRDNAKNTVYLQMNSPKPEDTAVYYCAAEYDDWDYLWYWGQGTQVTVSS
polyreactivity (PSR sort gate): low polyreactivity

QVQLVESAVGLVQAGGRLRLSCAASGRIFVFNAMGWYMQAPGKERELVAAITASSTRTYYADSVKGRFTISRDNAKNTVYLQMNSLNPEDPAVYYCARDIRQYILYGRVDYWGQGTQVTVSS
polyreactivity (PSR sort gate): low polyreactivity

QVQLVESGGGLVQAGGSLRLSCAASGRTFKRYAMGWYRQAPGKERELVAAIRQRGGSTYYADSVMGRFTISRDNAKNTVYLQMNSLKPEDTAVYYCAAVIPRPYSVGFDYWGQGTQVTVSS
polyreactivity (PSR sort gate): high polyreactivity

QVQLVESGGGLVQAGGSLRLSCAASGLTFYKYAMGWYRQAPGKERELVAAITSTGGSTYYADSVKGRFTISRDNAKNTVYLQMNSLKPEDTAVYYCAAQWYTALYYWGQGTQVTVSS
polyreactivity (PSR sort gate): high polyreactivity

QVQLVEAGGGLVQAGGSLRLSCAASGSIFVGNAMGWYRQAPGKERELVAAISSSGGRKFYADSVKGRFTISRDNAKNTVYLQMISLKPEDTAVYYCAAVYTHWQQRMDYWGQGTQVTVSS
polyreactivity (PSR sort gate): high polyreactivity
